The labels stand for the following.
B5: His-tagged RNPC1a (recombinant) (natural protein, UniProt Q9H0Z9-1 1-239, looked up)
chain: MLLQPAPCAPSAGFPRPLAAPGAMHGSQKDTTFTKIFVGGLPYHTTDASLRKYFEGFGDIEEAVVITDRQTGKSRGYGFVTMADRAAAERACKDPNPIIDGRKANVNLAYLGAKPRSLQTGFAIGVQQLHPTLIQRTYGLTPHYIYPPAIVQPSVVIPAAPVPSLSSPYIEYTPASPAYAQYPPATYDQYPYAASPATAASFVGYSYPAAVPQALSAAAPAGTTFVQYQAPQLQPDRMQ

Holding throughout (assay): pull-down
Experiment [1] addresses B5.
For experiment [2], the target named is His-tagged HuR (recombinant) (UniProt Q15717 1-326).
The target in experiment [3] is GST-HuR (1–326) (UniProt Q15717 1-326).

B1: GST-HuR (134–326) (domain or fragment, UniProt Q15717 134-326, looked up)
chain: NSRVLVDQTTGLSRGVAFIRFDKRSEAEEAITSFNGHKPPGSSEPITVKFAANPNQNKNVALLSQLYHSPARRFGGPVHHQAQRFRFSPMGVDHMSGLSGVNVPGNASSGWCIFIYNLGQDADEGILWQMFGPFGAVTNVKVIRDFNTNKCKGFGFVTMTNYEEAAMAIASLNGYRLGDKILQVSFKTNKSHK
On to B1, for which the binding result in experiment [1] is “binds”.

B2: GST-HuR (183–326) (domain or fragment, UniProt Q15717 183-326, looked up)
chain: FAANPNQNKNVALLSQLYHSPARRFGGPVHHQAQRFRFSPMGVDHMSGLSGVNVPGNASSGWCIFIYNLGQDADEGILWQMFGPFGAVTNVKVIRDFNTNKCKGFGFVTMTNYEEAAMAIASLNGYRLGDKILQVSFKTNKSHK
Turning to B2, the binding result in experiment [1] is recorded as “binds”.

B3: GST-HuR (Δ95-244) (natural protein, UniProt Q15717 1-326, looked up)
chain: MSNGYEDHMAEDCRGDIGRTNLIVNYLPQNMTQDELRSLFSSIGEVESAKLIRDKVAGHSLGYGFVNYVTAKDAERAINTLNGLRLQSKTIKVSCIFIYNLGQDADEGILWQMFGPFGAVTNVKVIRDFNTNKCKGFGFVTMTNYEEAAMAIASLNGYRLGDKILQVSFKTNKSHK
As to B3, the binding result in experiment [1] was “binds”.

B4: GST-RNPC1a (natural protein, UniProt Q9H0Z9-1 1-239, looked up)
chain: MLLQPAPCAPSAGFPRPLAAPGAMHGSQKDTTFTKIFVGGLPYHTTDASLRKYFEGFGDIEEAVVITDRQTGKSRGYGFVTMADRAAAERACKDPNPIIDGRKANVNLAYLGAKPRSLQTGFAIGVQQLHPTLIQRTYGLTPHYIYPPAIVQPSVVIPAAPVPSLSSPYIEYTPASPAYAQYPPATYDQYPYAASPATAASFVGYSYPAAVPQALSAAAPAGTTFVQYQAPQLQPDRMQ
Consider B4, for which the binding result in experiment [2] was “binds”.

Regarding B5, the binding result in experiment [3] is given as “binds”.

The record behind these values is article PMC2853136 (Nucleic Acids Research, 2010).
